Assay results as given in the supplement of paper PMC10724198.
± gives the standard deviation of the averaged measurements.

System: Saccharomyces cerevisiae
Experiment: protein stability index of tFT-peptide fusion (C-terminal peptide) (PSI (0-1 scale)); higher = more stable (slower turnover)
Details: genetic background: wild type; temperature: 30 C
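Also: PSI is a weighted mean of sequencing reads over stability bins, variants kept only with over 10 reads, mCherry proximal and sfGFP distal, peptide attached via GGGS linker.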

Row | Sequence | protein stability index
1 | SLRLPPPTDTDS | 0.681 ± 0.03
2 | SLRQEFDAIFVG | 0.604 ± 0.039
3 | SLRSGFVSHFSP | 0.689 ± 0.11
4 | SLRSIAPLGSRC | 0.832 ± 0.19
5 | SLSAQTISDLSM | 0.68 ± 0.049
6 | SLSDKRATKGED | 0.65 ± 0.018
7 | SLSHPSPPRTLP | 0.697 ± 0.007
8 | SLSIWSTSPPAA | 0.691 ± 0.0086
9 | SLSLRPPPYPPP | 0.578 ± 0.0096
10 | SLSPLPSPPPPP | 0.7 ± 0.0087
11 | SLSPPPPAPRAP | 0.663 ± 0.02
12 | SLSPTPVAPPLN | 0.678 ± 0.009
13 | SLSRPASPPPHH | 0.674 ± 0.12
14 | SLTLPAPPLSPC | 0.712 ± 0.11
15 | SLTYTSVAKAEV | 0.6149 ± 0.0034
16 | SLVVPVSAAQYV | 0.653 ± 0.028
17 | SLVWVGGRRWPI | 0.73 ± 0.023
18 | SMARVWLVWRWK | 0.673 ± 0.035
19 | SMFLGLCGSIYG | 0.699 ± 0.056
20 | SMMMIISQRKTR | 0.787 ± 0.1
21 | SMPKMGISGVIY | 0.617 ± 0.051
22 | SNDTRKNKKRRT | 0.797 ± 0.084
23 | SNGYMFRRDRYV | 0.686 ± 0.028

Row | Sequence | protein stability index
24 | SNLYNNQEQDHT | 0.723 ± 0.058
25 | SNPSTNPCWKKK | 0.643 ± 0.041
26 | SNRALHATPCPR | 0.9 ± 0.038
27 | SNRCGRGMRVFA | 0.658 ± 0.065
28 | SNVHSYPEIRPG | 0.681 ± 0.01
29 | SPAPLALSLRPP | 0.668 ± 0.023
30 | SPAPPVPLHPPH | 0.714 ± 0.089
31 | SPAPRAPRGICL | 0.706 ± 0.017
32 | SPCPPPPPSPPS | 0.6637 ± 0.0013
33 | SPETSSILLLSF | 0.612 ± 0.0035
34 | SPGLQPVACPSF | 0.639 ± 0.019
35 | SPGRPGLGGGAW | 0.776 ± 0.26
36 | SPGRPSSPPRPR | 0.744 ± 0.029
37 | SPGVFQQRHHTY | 0.665 ± 0.087
38 | SPHSRAPPRFPP | 0.726 ± 0.14
39 | SPILRFPPPCFL | 0.67 ± 0.019
40 | SPKGHGEGGGSK | 0.6779 ± 0.00078
41 | SPKPPPHPPPPA | 0.535 ± 0.0095
42 | SPLASVLPHAAL | 0.707 ± 0.049
43 | SPLFLPPPVPPP | 0.599 ± 0.039
44 | SPLFPPIPSSLS | 0.7278 ± 0.00076
45 | SPLGAADTRQEP | 0.687 ± 0.025
46 | SPLLRSRPPPPI | 0.749 ± 0.016

Row | Sequence | protein stability index
47 | SPLPPHPPLPLL | 0.6395 ± 0.002
48 | SPLPPPSPRPSL | 0.681 ± 0.039
49 | SPLPPRSPPRPA | 0.699 ± 0.01
50 | SPLSPLPPALSL | 0.695 ± 0.046
51 | SPLSPPPPRLSA | 0.723 ± 0.061
52 | SPPCPPPLAPPP | 0.758 ± 0.044
53 | SPPFPRPCPFTP | 0.644 ± 0.086
54 | SPPHPPPLLLPP | 0.655 ± 0.066
55 | SPPHSPPWPLSL | 0.691 ± 0.052
56 | SPPLGFAPPSRS | 0.853 ± 0.046
57 | SPPLHTFSLPFY | 0.669 ± 0.021
58 | SPPLLPGVLSES | 0.645 ± 0.055
59 | SPPLPKFPPAIP | 0.689 ± 0.021
60 | SPPLRPLSDLTP | 0.692 ± 0.085
61 | SPPPAPPPISPS | 0.708 ± 0.15
62 | SPPPFFSPSLPP | 0.65 ± 0.09
63 | SPPPFPPSPSPP | 0.715 ± 0.039
64 | SPPPGLSVILLH | 0.6 ± 0.054
65 | SPPPHPVHPVPL | 0.611 ± 0.019
66 | SPPPISIYPPFR | 0.668 ± 0.024
67 | SPPPLPLPPPAP | 0.695 ± 0.013
68 | SPPPNPRRPVPL | 0.6916 ± 0.0023
69 | SPPPPLPPPLPP | 0.52453 ± 0.00047

Row | Sequence | protein stability index
70 | SPPPPPPPPFPL | 0.672 ± 0.033
71 | SPPPPRLPSHPS | 0.613 ± 0.14
72 | SPPPPSCRHSPL | 0.741 ± 0.011
73 | SPPPSPPTVLPI | 0.683 ± 0.022
74 | SPPPSSPPPFPR | 0.639 ± 0.026
75 | SPPPTDPPQPPL | 0.7035 ± 0.0018
76 | SPPRPPAPPLLP | 0.676 ± 0.011
77 | SPPRPPPSPTPL | 0.771 ± 0.033
78 | SPPRPPVLSPGH | 0.68 ± 0.085
79 | SPPSATTLRAPS | 0.641 ± 0.037
80 | SPPSFFRATRSN | 0.644 ± 0.096
81 | SPPSFLSFFCAP | 0.755 ± 0.14
82 | SPPSLPPLPPRF | 0.702 ± 0.016
83 | SPPSPLRPPPPS | 0.7 ± 0.01
84 | SPPSPRLPPPLL | 0.77 ± 0.046
85 | SPPTPPLAPLSP | 0.656 ± 0.042
86 | SPPTPPPSPPFL | 0.523 ± 0.012
87 | SPPTPPTSICPS | 0.705 ± 0.03
88 | SPRHAGSSAWRP | 0.674 ± 0.064
89 | SPRPDSVLLRSP | 0.723 ± 0.025
90 | SPRPLPLPLPTS | 0.682 ± 0.1
91 | SPRSLLTPHPHM | 0.686 ± 0.041
92 | SPRSSPLPSPPP | 0.766 ± 0.026

Row | Sequence | protein stability index
93 | SPSFDLLFSPFD | 0.778 ± 0.01
94 | SPSPAPPTRSPS | 0.696 ± 0.023
95 | SPSPRLSFFLPS | 0.727 ± 0.026
96 | SPSRVSYFFFFS | 0.641 ± 0.059
97 | SPSSTSPAPFPL | 0.672 ± 0.14
98 | SPTLNRSLPVPS | 0.654 ± 0.045
99 | SPTPINALRPPT | 0.695 ± 0.032
100 | SPTPLLPLASSP | 0.695 ± 0.052
101 | SPTPPPPAPPPP | 0.645 ± 0.044
102 | SPTPPPPSPLAP | 0.726 ± 0.059
103 | SPTRSPPRPLPP | 0.649 ± 0.031
104 | SPTSLPLSMPTR | 0.724 ± 0.1
105 | SPVGRRTLPSGF | 0.692 ± 0.023
106 | SPWFPLPSFPLA | 0.73 ± 0.029
107 | SQGDVLLFMFLW | 0.548 ± 0.033
108 | SQGSCCTALDVA | 0.675 ± 0.046
109 | SQLEPNNVQVTT | 0.68 ± 0.0069
110 | SQLRSSTSARYV | 0.692 ± 0.14
111 | SQPLPNRLKTRG | 0.695 ± 0.032
112 | SQPNRESQNTFN | 0.711 ± 0.052
113 | SQTEAGSICTLP | 0.676 ± 0.05
114 | SRDMGYFFPKLK | 0.655 ± 0.073
115 | SRFDAGYRGTIT | 0.68 ± 0.034

Row | Sequence | protein stability index
116 | SRGMERIWEFGR | 0.612 ± 0.036
117 | SRGNYKLIWSDT | 0.731 ± 0.093
118 | SRHWCHDTGTLT | 0.7 ± 0.012
119 | SRIGNADAAQGM | 0.732 ± 0.042
120 | SRKSDTMPSYPL | 0.791 ± 0.26
121 | SRLQIRIRINEV | 0.572 ± 0.032
122 | SRLVCSTLHWRD | 0.699 ± 0.021
123 | SRNRYSSPPVFI | 0.644 ± 0.039
124 | SRPISCSLPCCV | 0.646 ± 0.054
125 | SRPLVPSPPSPV | 0.663 ± 0.02
126 | SRPPPYAPPSPP | 0.716 ± 0.01
127 | SRPRLPPSPCLF | 0.631 ± 0.032
128 | SRPRPPVTPPSE | 0.648 ± 0.054
129 | SRPSPPPRRPLG | 0.759 ± 0.067
130 | SRRAPPPLYLPL | 0.699 ± 0.067
131 | SRSAQAGFKVFN | 0.712 ± 0.2
132 | SRSFVPRNSPRI | 0.6609 ± 0.0051
133 | SRSRPSRTLPLD | 0.695 ± 0.022
134 | SRSSASTKRNRW | 0.701 ± 0.096
135 | SRSSRINLMRRW | 0.674 ± 0.021
136 | SRVLLPPQTLLL | 0.573 ± 0.035
137 | SRVVSPLFNLCL | 0.692 ± 0.018
138 | SRVWACCGVIGV | 0.667 ± 0.067

Row | Sequence | protein stability index
139 | SRWHVCGWYKRR | 0.682 ± 0.016
140 | SRWWSRPRYRDG | 0.752 ± 0.017
141 | SRYGKVIRKKHE | 0.756 ± 0.021
142 | SSDLTKKCNRLR | 0.673 ± 0.023
143 | SSFCWAGWGGVC | 0.778 ± 0.059
144 | SSGRWLFLPPCP | 0.899 ± 0.13
145 | SSLGLFISTASV | 0.664 ± 0.042
146 | SSLIGHTLRPLV | 0.686 ± 0.022
147 | SSLLSLPLRCSF | 0.717 ± 0.039
148 | SSLPSFPTKCPF | 0.71 ± 0.051
149 | SSLPSTGPRPLH | 0.582 ± 0.038
150 | SSNVVLYHSCSQ | 0.65 ± 0.018
151 | SSPARPTRTSPA | 0.652 ± 0.061
152 | SSPDLGPVCVPC | 0.647 ± 0.016
153 | SSPFCPLFQNPL | 0.757 ± 0.056
154 | SSPLPHPSFSPS | 0.689 ± 0.017
155 | SSPLRLAPTEPS | 0.6927 ± 0.0039
156 | SSPLRVLGPESG | 0.689 ± 0.062
157 | SSPPPPPPPPSP | 0.746 ± 0.053
158 | SSPPTHAPPLPP | 0.688 ± 0.017
159 | SSPSPAPPPPRP | 0.738 ± 0.069
160 | SSQLKMESLFII | 0.624 ± 0.064
